Assay: soluble on expression in E. coli; label from the status in PepcDB or PDB records

| Sequence | soluble on expression in E. coli |
| --- | --- |
| MEIKMAKDYGFCFGVKRAIQIAEKNQNSLIFGSLIHNAKEINRLEKNFNVKIEEDPKKIPKNKSVIIRTHGIPKQDLEYLKNKGVKITDATCPYVIKPQQIVESMSKEGYQIVLFGDINHPEVKGVISYATNQALVVNSLEELQEKKLQRKVALVSQTTKQTPKLLQIASYLVERCTEVRIFNTICNATSYNQKAALDLSKEVDIMIVVGGKTSSNTKQLLSIAKQHCKDSYLVEDENELELAWFKDKKLCGITAGASTPDWIIENVKQKISTILEHHHHHH | not soluble |
| MEILQFIGYGNMAQAILEGAHEILSKRFILEITGRNPEKIAPFLQEKNIQAQIVPYKDAIDIHQKFVFLLFKPYNLKDFNYQGQAKSVLSALAGVGFKALSDAIDSLHYLKCMPNIASKFALSSTAVCEKSPMPLISQKALSVIESFGNCVRVGHEELVDASVATNGSALAFLSLVANSLKDAGIREGLNARGSLELVKMSFKGFAKLLEKERPEMIIEQICTPKGATIEGLSVLEKKGVRGAFIEACHKSVKKMRLLEHHHHHH | not soluble |
| MEILSDMWKEKITFIGINIDDEKSWKKFSQKNIKWITLNDPKEAFGLYIRYKANGIPFYVLVTPDGRISDIWYGYNKDSLSERLKQGVK | not soluble |
| MEITDVRIRKIDSEGKMKAVVSVTFDNEFVVHDIKVIESQNGLFIAMPSRKAPDGEFRDIAHPINAETRSKIQTAILDKYESICAGSTETEGNN | soluble |
| MEIVCEDFQKALTKIKLLRENANIIEETVQRSVREIVQNVRESRDEALSFYTKKFDGVEIKDVRVSEEEIKQASMFVESSFLEALQEAKKNIISYHEKQKRQSMFDCTSKGIIRGQIIRPLENIGVYVPGGTASYPSSVLMNVLPAKLAGVKKIVMVTPPRAGGIDPHILVAASLAGVDEIYMIGGAQAIAALAYGTESIPKVDKIVGPGNLYVALAKREVYGIVNIDMIAGPSEIVVIADETGNAKYIAADLLSQAEHDERATAICITTNIELAKEVEKEIERQLETLPRSEIARESINRNGAIFIVPSIDEALQLSNEIAPEHLELHIKEPMNALAYVKHAGSIFLGPYAPEPLGDYLAGPNHVLPTSGTARFFSPLSVDDFVKKSSFLSYTEGALRDVKHHIVELANKEGLHAHARAIQIRFGEEE | not soluble |
| MEIVDTRTPNSKRFISGVTGDWEVIIGMEVHAQIISNSKLFSGASTKFGAEPNNHVSLIDAAMPGMLPVLNQECVRQAVRTGLGLKARINLRSVFDRKNYFYPDLPQGYQISQFRYPIVGEGKIIISIGPDSNGQFEDIEVGIERLHLEQDAGKSMHDQHPTMSFVDLNRSGVALMEIVSKPDMRSADEAKAYMTKLRTIVRYLGTCDGNMDEGSMRADVNVSVRRPGESFGTRCEIKNVNSIRFIGQAIEYEARRQIAILEDGGVIDQETRLFDAAKGETRSMRSKEEAHDYRYFPDPDLLPLEFDQAFVDALAAELPELPDDIKIRFINEMGLTAYDASILVTEKAIANYFEKVAHGRDGKTVANWVINDLLGALNKDNREIEETPVSPDQLGSIIDLIKEGTISGKIAKDLFEIIWHEGGDPRQIVEERNMKQVTDTKAIERAVDEIMANNSDKVAQAKQKPALAGWFVGQVMKTTGGKANPQTVNELVKLKLGID | not soluble |
| MEKATKRNDEECEVQLNIKRNSKHSAWTGELFKIECPVKYCVHRPNVTWCKHNGTIWVPLEVGPQLYTSWEENRSVPVFVLHFKPIHLSDNGSYSCSTNFNSQVINSHSVTIHVRERSQNSS | soluble |
| MEKAYKILSVQENISHKKAKALIDSGLVSIGGKKLMVARKELPKNTHFSVQKVEKPSVIFEDENILALFKPPFIESYDLASFFKGWALLHRLDKETSGVVLLVKENSEFHLKAKKAFKDRAVKKEYLALTQGIIEEEREINAPILTFKTTKAFSKISKKGQEAVTIITPLKIINKKTLLKVGIKTGRTHQIRVHLKHINHPIIGDTLYNNEPSLAKRLMLHAHKIALLGYEFEAIAPKEFEILEHHHHHH | soluble |
| MEKDDATASFSPSFSTYSGDRLVEIAERVCYKEKSDAEFEFSTAATSSSGDGGLVFPVFNKNLISGDVSPEKVIPLKDLFLRERNDQQPPQQTYSSSSDEEEEDDEFDSIPSEIYCPWTPARSTADMSPSGGCRKSKSTGSSSTSTWSTKRWRLRDFLKRSKSDGKQSLKFLNPTNRDDDDESSKSKKKVSVSVTVSAHEKFYLRNKAIKEEDKRKSYLPYKQDLVGLFSNIHRYGKTFPPF | not soluble |
| MEKGAPQNNADEEAKVEVPPPAPKTTSAERAPEKVSAEKAQEQEKSAMGSVPIPPEREKHIKERKTGYEYSIVTINYKPGTKFGLGIKNVFNKSIYVIKVEENSLVSGIFNVADRIIDVDGEPVYDNAKCKGLLVKALKEKKVCTLLIERGITESALKDATNEMNEEHTQSVMAPPDVKSIMRKLEAHNFLRKSPSCESAAAPNPVPSAMTKNKEGKGERKACILEDGHKSVMIRMDNEENRNKLKKVEPKEPPRRLDPKTPPKPAAPEPKPEGK | not soluble |
| MEKHLLISKGCKGWGGPLTITPGQGKKIAYITGGIRPPVVDRLSELTGWPSIDVFKNGEPPAEEIGLMVIDCGGTLRCGLYPKRGIPTINLHPTGKSGPLAEFIHEGIYVSGVTPACIEMVWPQGEGGKLGIVADDLTGATTVGVLLARSGLKTAAFFDTESFARNEVEYPAMVVSSDSRPLPKAEAQHKVSAAVKQLQARGAHYFTKRIDTTLRGGIGFEIDAMLEQLPQETVAVVVPAMPQSRRILVGGYSVIDSVALSRTDVARDVRTPVTESWVPGLLAAQTHHQVGHIALTSVMKGEGQIQQDLQEQQQRGVRVIVVDAITVDDVDAIAGAVVALNWNVLTVDPGPFTERLAVRRGLMREARSSAPASLTADGQRGSILIVAGSATPVTKKQLQYLIANDARVCHIPVDAELLVDRKNAAEIEVNRVVQHARQCVPAQHNALFVFESALTGRLLNLQEEEQRFGLAHGEAAQNINHGLGSIVREVLNCASGEIKGLYMTGGDTMVNVLKELGATGIEMIDYVIPQTDMVRIIGGDYAGLICVGKGGLTGPEDIISIIVDRIYQEAQ | not soluble |
| MEKIERLRSAFDEAGIDGILLTNEHSRRYMANFTGTAGVVLISKKRAQFITDFRYVEQASKQAVGYEIVQHAGLIIDEVAKQVKELGIQKLGFEQDTLTYSSYSAHKEAIDAEFIPTSGLVEKLRLIKTDSEIKILKEAAQIADAAFEHILSFIRPGVSEIEVSNELEFFMRKQGATSSSFDIIVASGLRSALPHGVASEKVIETGDFVTLDFGAYYKGYCSDITRTIAVGEPSDKLKEIYNIVLEAQLRGVNGIKAGLTGREADALTRDYITEKGYGEYFGHSTGHGIGLEIHEAPGLAFRSDTVLEPGMAVTVEPGIYIPGIGGVRIEDDIIVTSEGNEVITKSPKELIIL | not soluble |
| MEKKANHGDDVQESVPIIHSQVVKIKREFEKIQHPSLKQPEMPLVFREIMGPRRSRSPLGLGERERSIPVGN | not soluble |
| MEKKFIAIYDLESDKIEIIDDKFRFKCIEDCGKCCIYNEIPLREEDIQKILSLGYEEEYFVDYTKMFYRGPKFLGYGMKKRPFDDACVFLDPETKKCRIYEHRPVACRIYPFVLVKHEKKLEIYVKEDPRCPGINSPDGEGIVEIIKKYFIPIIEELKGEINGNRRSRQEDFISFNRRLETVVAAALEHHHHHH | not soluble |
| MEKKRVVITGLGAVTPVGTDVETAWENIKKGVSGIGRLTRIDPELFPAKVAAEINDFEVEKYIDKKEARRMDRFTQYAVAAAKMAVADAKLEITEENGPRIGVWIGSGIGGMETYEEQFKIFTEKGPRRVSPFFVPMMIPDMAAGQVSIATGAKGINTCSVTACASGANSIGDAFKAIQRGDADAMITGGAEAPLTSMAFAGFSSAKALTFNEDPATACRPFDKNRSGFVMGEGSGILILEELEHALARGAHIYAEIAGYGATGDAFHITMPAPGGEGGVRAMRQALADAGLQPEDIDYINAHGTSTDANEKYETMAIKETFGEHAYKVAISSTKSMTGHLLGAAGAVEAIFSIKSITDGVIPPTINYETPDPECDLDYVPNNARHQEVNAVLSNSLGFGGHNAVLVFKSYK | not soluble |
| MEKLNRAADDSMINTLSEKSNEFSFYQAVLLLEKHYQFEPNSNFVAVGENKYFHQERIEFSVSPNLCFPKSDMEFIVHMERNGQQYSRVETNFLGLHGSSSPLPVSYTEKLTGREPDDNPVKDFFDFFHNRYTSLLYRVWKKYRYHVQYQSGATDAFSGRMLHLAGLSGVMQDCGVAELDRAKVLSYVNQLSTRTRSPKLISGIVSHYFSLPSVRIEEWVYRRVEIADSQRNKLNRANCILGQSFHLGQSIADLNGKFNLCIDDIDFETFKQFSYEGELHKTLVGLMRFILRDPMSWDLKLTVNLDSIPNNQLGNGEGNNLGQTFWLGNPTDEDVKIRVIGSI | not soluble |
| MEKNTIILGIETSCDETAVAVVKNGTEIIANVVASQIESHKRFGGVVPEIASRHHVEEITVVLEEALKEANITFDDIDAIAVTEGPGLVGALLIGVNAAKAVAFAHDIPLVGVHHIAGHIYANRLVKEVQFPLLSLVVSGGHTELVYMKEHGSFEVIGETRDDAAGEAYDKVARTLSMPYPGGPHIDRLAHEGKPTIDLPRAWLEPDSYDFSFSGLKSAVINTVHNAKQRGIEIAPEDLAASFQESVIDVLVTKASRAADAYNVKQVLLAGGVAANKGLRARLETEFAQKENVELIIPPLSLCTDNAAMIAAAGTIAYEQGKRATLALNANPGLDIEA | not soluble |
| MEKRIVCLAGDGVGPEVMESAKEVLHMVERLYGHHFHLQDEHFGGVAIDLTGQPLPQRTLAACLASDAVLLGAVGGPRWDGAKERPEKGLLALRKGLGVFANVRPVTVESATAHLSPLKKADEIDFVVVRELTGGIYFSYPKERTDEVATDTLTYHRHEIERIVSCAFQLASKRKKKVTSIDKANVLESSKLWRIVTEEVALRYPDVELEHILVDAAAMELIRNPGRFDVIVTENLFGDILSDEASVLAGSLGMLPSASHAEKGPSLYEPIHGSAPDIAGKNKANPIAMMRSVAMMLGQSFGLTREGCAIEEAISAVLKSGKCTADIGGTETTTSFTKAVMQEMEEQALVGRGR | not soluble |
| MEKSLVDTVYALKDEVQELRQDNKKMKKSLEEEQRARKDLEKLVRKVLKNMNDPAWDETNL | soluble |
| MEKYMSLLTRIEEMMQSTSYQEGDRLPSIRQLSARYQVSKSTVIRALQELEKRHLIYSVPKSGYYIVKKSGKSKSGQPGPIDFATSAPDPDVFPYLDFQHCINKAIDTYKNDLFIYGTPKGLPSLIRVLRKLLATQQVFADERHIFITSGVQQALSLLCAMPFPNGKEKIAIEQPGYHLMVEQLETLGIPAIGVKRTEEGLDIAKVERLFQTESIKFFYTMPRFHNPLGCSLSERDKQELVRLAEAYDVYLVEDDYLGDLEENKKADPLYAYDLSSHVIYLKSFSKMMFPGLRVGAAVLPEALTDTFYAYKKLNDIDCSMISQAALEIYLKSGMYGRHKEKIRDSYKERSLRLHQAIRTHRQLGSGRFTFSSGQAPCMHTHLVLPQDLPASRVIHRLEKQGVLLEAIDRHYLSDYPKENLLKINISNVKTEDIERGVKLLMSHL | not soluble |
| MELAKKTGATVIGSAEMADYLSSYHGVENVHGMNIGGKANFDFGSVKFVQAFHSSSFTHENGIPVYLGMPMGIVFEVEGKTIYHTGDTGLFSDMSLIAKRHPVDVCFVPIGDNFTMGIDDASYAINEFIKPKISVPIHYDTFPLIEQDPQQFKDAVNVGDVQILKPGESVQFLEHHHHHH | not soluble |
| MELELDDDVFFADISKQLNLLITDEDEQNPISLSSSVSFQGLFRGNYQTSATPYMMYNEQINYNVIRESKGTGVFIPRSSQPRRKHNHHPHQKKQGRFIGSFIPKQQFPHHGHDNNLTTLNNNNQESITFHHASTNPRRTYRDAASLFT | not soluble |
